pKd: −log10 of the molar value.

The values below come from article PMC7338481.

The target of this test is Staphylococcal enterotoxin G, wild type (Staphylococcus aureus (staphylococcal)) (UniProt P0A0L8). Kind of test: SPR.

A word on the pKd: it is the negative decadic logarithm of the Kd, by convention in mol/L. In turn, Soluble mouse TCR β chain Vβ8.2 protein gave a pKd of 6.43.
